According to patent publication US6410296:

B1: LM8, subclone of APNG1 expressing amino acids 1-249 (protein)
chain: MADPVYVGGFLVRYDEPPGEAELFLPSGVVDRWLRDCRGPLPLNVNHDESATVGYVAGLQNVRAGLFCLGRVTSPKFLDIVQKASEKSELVSRGPPSESSLRPDGVLEFLSGSYSGLSLSSRRDINAADGAAGDAETACFKHVALCSVGRRRGTLAVYGRQPDWVMERFPDLTEADREALRNQLSGSGEVAAKESAESSAAAAVDPFQSDSYGLLGNSVDALYIQERLPKLRYDKRLVGVTARESYVKA
B2: LM7, subclone of APNG1 expressing amino acids 1-280 (protein)
chain: MADPVYVGGFLVRYDEPPGEAELFLPSGVVDRWLRDCRGPLPLNVNHDESATVGYVAGLQNVRAGLFCLGRVTSPKFLDIVQKASEKSELVSRGPPSESSLRPDGVLEFLSGSYSGLSLSSRRDINAADGAAGDAETACFKHVALCSVGRRRGTLAVYGRQPDWVMERFPDLTEADREALRNQLSGSGEVAAKESAESSAAAAVDPFQSDSYGLLGNSVDALYIQERLPKLRYDKRLVGVTARESYVKASVSPAEQETCDIKVEKERPKEPEQSHVPTES

Molecular target: CMV Colburn assembly protein precursor (product of APNG.5)

| Protein | proteolytic activity |
| --- | --- |
| B1 | Both are proteolytically active using assembly protein precursor as a substrate |
| B2 | Both are proteolytically active using assembly protein precursor as a substrate |
